Measurements published in patent US20220119824A1.

Tests used:
[1] = biological target: recombinant murine CTLA-4-human IgG1 Fc chimera (R&D Systems) (mouse; human) (UniProt P09793); test: competitive ELISA: mouse CD80 coated (competitor), murine CTLA-4-human IgG1 Fc chimera at 10 ng/ml mixed with scFv supernatant, anti-human IgG1-HRP
[2] = biological target: recombinant murine CTLA-4-human IgG1 Fc chimera (R&D Systems) (mouse; human) (UniProt P09793); test: competitive ELISA: mouse CD86 coated (competitor), murine CTLA-4-human IgG1 Fc chimera at 10 ng/ml mixed with scFv supernatant, anti-human IgG1-HRP
[3] = biological target: IL-12 receptor on HEK-Blue™ IL-12 cells (InvivoGen) (UniProt P42701); test: cell-based or functional assay
[4] = biological target: mouse TGF-β1 (R&D systems) (mouse) (UniProt P04202); test: direct ELISA with mouse TGF-β1 on supernatant of transfected HEK293T cells
[5] = biological target: mouse TGF-β1 (R&D systems) (mouse) (UniProt P04202); test: direct ELISA with mouse TGF-β1 on concentrated supernatant of transfected HEK293T cells

STAT4-SEAP reporter in HEK-Blue IL-12 cells co-cultured with transfected HEK cells (Absorbance/% GFP) (Absorbance/% GFP) [3] | Substance | further results
 | Anti-CTLA-4 scFv (ipilimumab scFv antibody fragment) | % CD80 Blockade Activity [1]: 7%; % CD86 Blockade Activity [2]: 32.5%
0.237 | Human membrane bound IL-12p70 (ligand) | 
0.117 | Mouse membrane bound IL-12p70 (ligand) | 
 | Soluble mouse TGFβ receptor II Fc (from UniProt Q62312 24-166) (Fc fusion) | Absorbance at 450 nm (absorbance at 450 nm) [4]: 1.51; Absorbance at 450 nm (absorbance at 450 nm) [5]: 1.52
0.11 | huIL-12p70 (soluble human IL-12p70) (from UniProt P29460 23-328; P29459 23-219) (ligand) | 
0.11 | muIL-12p70 (soluble murine IL-12p70) (from UniProt P43432 23-335; P43431 23-215) (ligand) | 
